This is an account of results in publication PMC10465357.

This experiment concerns the target 14-3-3 proteins. The experiment can be described thus: Western blot of purified virions, quantified. The settings on record: read off a plot. For orientation: In western blotting, separated proteins are transferred to a membrane and probed.
For the substance UL32 (also known as pp150) 3/4mut, the ratio to parent is 0.06. Consider UL32 (also known as pp150) 4/5mut, for which the ratio to parent stood at 0.02. Take UL32 (also known as pp150) 3mut: the ratio to parent amounted to 0.48.
